From paper PMC8668187
Values joined by “and” are separate entries in the source; they are usually repeats but may differ in a detail not shown here. Equal values may be shown once. One block for each substance: values may come before it.

Tests used:
[1] = target: CsGSIb EVK138DIQ mutant (Camellia sinensis)
[2] = target: CsGSIb EVK138DIQ mutant (Camellia sinensis); assay: SEC-MALS; Superdex 200 10/300 GL with MALS and QELS; 50 mM KPi pH 7.0, 100 mM NaCl, 1 mM β-mercaptoethanol, 0.05 % NaN3; room temperature (~23 °C); self-association of the GS
[3] = target: CsGSIb EVK138DIQ mutant (Camellia sinensis); assay: AUC; sedimentation velocity, 0.1/0.25/0.5 mg/mL, 50 mM Tris-HCl pH 7.4, 100 mM NaCl, 1.5 mM β-mercaptoethanol, rotor at 20 °C (results: room temperature); global fit; decamer to two pentamers
[4] = target: CsGSIb I143L mutant (Camellia sinensis)
[5] = target: CsGSIb I143L mutant (Camellia sinensis); assay: SEC-MALS; Superdex 200 10/300 GL with MALS and QELS; 50 mM KPi pH 7.0, 100 mM NaCl, 1 mM β-mercaptoethanol, 0.05 % NaN3; room temperature (~23 °C); self-association of the GS
[6] = target: CsGSIb I143L mutant (Camellia sinensis); assay: AUC; sedimentation velocity, 0.1/0.25/0.5 mg/mL, 50 mM Tris-HCl pH 7.4, 100 mM NaCl, 1.5 mM β-mercaptoethanol, rotor at 20 °C (results: room temperature); global fit; decamer to two pentamers
[7] = target: glutamine synthetase CsGSIb from Camellia sinensis, wild type (Camellia sinensis)
[8] = target: glutamine synthetase CsGSIb from Camellia sinensis, wild type (Camellia sinensis); assay: SEC-MALS; Superdex 200 10/300 GL with MALS and QELS; 50 mM KPi pH 7.0, 100 mM NaCl, 1 mM β-mercaptoethanol, 0.05 % NaN3; room temperature (~23 °C); self-association of the GS
[9] = target: glutamine synthetase CsGSIb from Camellia sinensis, wild type (Camellia sinensis); assay: AUC; sedimentation velocity, 0.1/0.25/0.5 mg/mL, 50 mM Tris-HCl pH 7.4, 100 mM NaCl, 1.5 mM β-mercaptoethanol, rotor at 20 °C (results: room temperature); global fit; decamer to two pentamers
[10] = target: glutamine synthetase GmGSβ2 from Glycine max (Glycine max); assay: SEC-MALS; Superdex 200 10/300 GL with MALS and QELS; 50 mM KPi pH 7.0, 100 mM NaCl, 1 mM β-mercaptoethanol, 0.05 % NaN3; room temperature (~23 °C); self-association of the GS

- glutamine synthetase activity, increase over wild-type CsGSIb (1 μM monomer enzyme, 30 min, 37 °C) [1]: 64 fold
- fraction decameric [2]: 72%
- Kd [3]: 40 nM
Substance: CsGSIb EVK138DIQ mutant (enzyme)

- glutamine synthetase activity, increase over wild-type CsGSIb (1 μM monomer enzyme, 30 min, 37 °C) [4]: 76 fold
- fraction decameric [5]: > 95%
- Kd [6]: 10 nM
Substance: CsGSIb I143L mutant (enzyme)

- glutamine synthetase activity on raising the CsGSIb concentration from 1 μM to 5 μM (monomer) [7]: 30 fold
- fraction decameric [8]: 18%
- fraction pentameric [8]: 82%
- stoichiometry N [8]: 5 and 10
- Kd [9]: 270 nM
- stoichiometry N [9]: 10 and 5
Substance: glutamine synthetase CsGSIb from Camellia sinensis, wild type (enzyme)

- stoichiometry N [10]: 10
Substance: glutamine synthetase GmGSβ2 from Glycine max (enzyme)
